Test results taken from patent US20240263208A1, “CYTOCHROME P450 ENZYME” (HYPHA DISCOVERY LTD., priority 2021, published 2024).

Legend:
Assay type in all cases: biochemical
[1] = Oxidase activity testing against ebastine; conditions: substrate Ebastine; Batch 1
Method: (§1) Lyophilised material of recombinant P450, ferredoxin and ferredoxin reductase proteins was made as described in Example 4 and reconstituted in high purity water to the original volume. Biocatalysis was performed with shaking incubation at 27° C. in the following conditions: 100 mM potassium phosphate pH 8.0, 5 mM MgCl2 (both present in the reconstituted enzyme preparation) and 0.1 mg/ml substrate compound such as ambroxide (Sigma-Aldrich, UK), carbamazepine (Sigma-Aldrich, UK), diclofenac (Sigma-Aldrich, UK), tivantinib (MedChemtronica, Sweden), clarithromycin (Tokyo Chemical Industry, Japan), sclareol (Sigma-Aldrich, UK), celecoxib (LC Laboratories, USA), buparvaquone (Sigma-Aldrich, UK), BIRB796 (MedChemExpress, USA), vanoxerine (CiVentiChem, USA), valsartan (Tokyo Chemical Industry, Japan), ruxolitinib (LC Laboratories, USA), perindopril (Selleckchem, USA), solifenacin (Key Organics, UK), 7-ethoxycoumarin (Tokyo Chemical Industry, Japan), tofacitinib (LC Laboratories, USA), ebastine (Key Organics, UK), efavirenz (Key Organics, UK), propanalol (Sigma-Aldrich, UK) and tolbutamide (Key Organics, UK).
(§2) Concentrations of P450, ferredoxin and ferredoxin reductase were as extracted (Example 4). Reactions were initiated by addition of 10× stock of cofactor mixture (50 mM G6P, 10 mM NADP+, 10 UN/ml G6PDH) to provide a final volume of e.g., 10 μl to 90 μl for 100 μl total reaction volumes. After 16-20 hours, reactions were extracted with an equal volume of acetonitrile, centrifuged to remove precipitated proteins and conversion assessed by UPLC-MS analysis.
(§3) UPLC Data were Obtained as Follows: • Column: Acquity UPLC BEH Shield RP18 1.7 μm 2.1 mm i.d. 50 mm length • Solvents: H2O, B: Acetonitrile, both with 0.1% Formic acid • Flow rate: 1.0 ml/min • Detector: Waters Acquity UPLC PDA (UV-Vis detection) and Waters Acquity UPLC QDA (MS)
(§4) Representative results for the % conversions of various substrates to products by enzymes with mutations at position T109 or L198 and double mutants at T109 and 1129/L198 are shown in Table 4 below.

[2] = Oxidase activity testing against sclareol; conditions: substrate Sclareol; Batch 1; UPLC-MS UV or MS peak areas
Method: as §1, §2, §3, §4

[3] = Oxidase activity testing against 7-ethoxycoumarin; conditions: substrate 7-ethoxycoumarin; Batch 1
Method: as §1, §2, §3, §4

[4] = Oxidase activity testing against ruxolitinib; conditions: substrate Ruxolitinib; Batch 1
Method: as §1, §2, §3, §4

[5] = Oxidase activity testing against perindopril; conditions: substrate Perindopril; Batch 1
Method: as §1, §2, §3, §4

[6] = Oxidase activity testing against celecoxib; conditions: substrate Celecoxib; Batch 1
Method: as §1, §2, §3, §4

[7] = Oxidase activity testing against tofacitinib; conditions: substrate Tofacitinib; Batch 1
Method: as §1, §2, §3, §4

[8] = Oxidase activity testing against carbamazepine; conditions: for +16 Da (1.18 min) 253 m/z: 2-hydroxycarbamazepine; for +16 Da (1.18 min) 253 m/z / +16 Da (1.14 min) 253 m/z / Parent (1.31 min) 237 m/z: relative MS peak area; for +16 Da (1.14 min) 253 m/z: carbamazepine epoxide; for reaction products from carbamazepine (in words): new product at 1.18 minutes identified as 2-hydroxycarbamazepine, epoxide at 1.14 minutes; for Parent (1.31 min) 237 m/z: remaining carbamazepine, 0.1 mg/ml, 27° C., 16-20 hours; for Average % conversion: substrate carbamazepine, relative MS peak areas
Method: as §1, §2, §3
To confirm the identities of reaction products where known, their chromatographic retention time, mass and ultraviolet spectra were compared with those of authentic metabolite standards.
Representative results for the % conversions of carbamazepine to oxidised (+16 Da) products for single point mutants at position L198 are shown in Table 3 below.

[9] = Oxidase activity testing against valsartan; conditions: substrate Valsartan; Batch 1
Method: as §1, §2, §3, §4

[10] = Oxidase activity testing against vanoxerine; conditions: substrate Vanoxerine; Batch 1
Method: as §1, §2, §3, §4

[11] = Oxidase activity testing against efavirenz; conditions: substrate Efavirenz; Batch 1
Method: as §1, §2, §3, §4

[12] = Oxidase activity testing against BIRB796; conditions: substrate BIRB796; Batch 1
Method: as §1, §2, §3, §4

[13] = Oxidase activity testing against tolbutamide; conditions: substrate Tolbutamide; Batch 1
Method: as §1, §2, §3, §4

[14] = Oxidase activity testing against propanalol; conditions: substrate Propanalol; Batch 1
Method: as §1, §2, §3, §4

[15] = Oxidase activity testing against clarithromycin; conditions: substrate Clarithromycin; Batch 1
Method: as §1, §2, §3, §4

[16] = Oxidase activity testing against buparvaquone; conditions: substrate Buparvaquone; Batch 1
Method: as §1, §2, §3, §4

[17] = Oxidase activity testing against solifenacin; conditions: substrate Solifenacin; Batch 1
Method: as §1, §2, §3, §4

+16 Da (1.18 min) 253 m/z [8] [%] | +16 Da (1.14 min) 253 m/z [8] [%] | reaction products from carbamazepine (in words) [8] | Parent (1.31 min) 237 m/z [8] [%] | Molecule | Average % conversion [1] [%] | Average % conversion [2] [%] | Average % conversion [3] [%] | Average % conversion [4] [%] | Average % conversion [5] [%] | Average % conversion [6] [%] | Average % conversion [7] [%] | Average % conversion [8] [%] | Average % conversion [9] [%] | Average % conversion [10] [%] | Average % conversion [11] [%] | Average % conversion [12] [%] | Average % conversion [13] [%] | Average % conversion [14] [%] | Average % conversion [15] [%] | Average % conversion [16] [%] | other results
3.1 | 42.3 | produce a new product | 54.6 | SeuC10M13: P450SeuC10 with L198F mutation, SEQ ID NO: 30 (protein, SeuC10M13) MKIGTTHLTRLRGLSMTELTDITGPAAQAETVAFPQDRTCPYHPPTGYDPLRDGRPLSRVTLYDGREVWLVTAQATARALLADPRLSTDRRRDGFPVPTPRFAAGRDRTLALLGLDDPEHHRQRRLLIPSFTLKRATAQRPWIQRIVDELLDAMIARGPVADLVSAFALPVPSMVICELLGVPYADHEFFEEQSRRLFRGPTGADTTDARDRLEAYLGDLIDAKAKEAEPGDGILDDLVHNRLRAGELDRSVLVSLAVILLVAGHETTANMISLGTYTLLQHPERLAELRADPSLLPAVVEELLRMLSIAEGLQRLALEDIEIDGITIRAGEGVLFSTSVINRDTAVYEDPDDLDFHRADRHHVAFGFGIHQCLGQNLARAELEIALGSLFTRLPGLRLAAPAEEIPFKPGDTVQGMLELPVTW | 14.7 | 41.3 | 31.2 | 98.1 | 38.2 | 26.8 | 32.2 | 45.4 | 12 | 29.4 | 0 | 54.6 | 27.9 | 0 | 0 | 39.1 | Average % conversion [17]: 0.8%
3.5 | 6.8 | produce a new product | 89.7 | SeuC10M20: P450SeuC10 with L198W mutation, SEQ ID NO: 44 (protein, SeuC10M20) MKIGTTHLTRLRGLSMTELTDITGPAAQAETVAFPQDRTCPYHPPTGYDPLRDGRPLSRVTLYDGREVWLVTAQATARALLADPRLSTDRRRDGFPVPTPRFAAGRDRTLALLGLDDPEHHRQRRLLIPSFTLKRATAQRPWIQRIVDELLDAMIARGPVADLVSAFALPVPSMVICELLGVPYADHEFFEEQSRRLWRGPTGADTTDARDRLEAYLGDLIDAKAKEAEPGDGILDDLVHNRLRAGELDRSVLVSLAVILLVAGHETTANMISLGTYTLLQHPERLAELRADPSLLPAVVEELLRMLSIAEGLQRLALEDIEIDGITIRAGEGVLFSTSVINRDTAVYEDPDDLDFHRADRHHVAFGFGIHQCLGQNLARAELEIALGSLFTRLPGLRLAAPAEEIPFKPGDTVQGMLELPVTW | 19.2 | 0 | 11.4 | 42.7 | 16.5 | 6.9 | 5.9 | 10.3 | 25 | 29.4 | 0 | 45.3 | 13.7 | 0 | 0 | 1.7 | Average % conversion [17]: 0.6%
